Laboratory results reported in publication PMC9985226, “A fully human connective tissue growth factor blocking monoclonal antibody ameliorates experimental rheumatoid arthritis through inhibiting angiogenesis” (BMC Biotechnology, 2023).

How the values were obtained:
[1] = biological target: T1, recombinant human connective tissue growth factor (CTGF) (Homo sapiens, UniProt P29279); assay: cell-based or functional assay
[2] = biological target: T1, recombinant human connective tissue …; assay: SPR; Biacore T200; CTGF amine-coupled on a CM5 chip; scFvs or IgG in running buffer PBS pH 7.4 flowed for 3 min at 10 µl/min, 5 min dissociation, regeneration with 1 M NaCl; conditions: both partners purified

T1 sequence (P29279 27-349): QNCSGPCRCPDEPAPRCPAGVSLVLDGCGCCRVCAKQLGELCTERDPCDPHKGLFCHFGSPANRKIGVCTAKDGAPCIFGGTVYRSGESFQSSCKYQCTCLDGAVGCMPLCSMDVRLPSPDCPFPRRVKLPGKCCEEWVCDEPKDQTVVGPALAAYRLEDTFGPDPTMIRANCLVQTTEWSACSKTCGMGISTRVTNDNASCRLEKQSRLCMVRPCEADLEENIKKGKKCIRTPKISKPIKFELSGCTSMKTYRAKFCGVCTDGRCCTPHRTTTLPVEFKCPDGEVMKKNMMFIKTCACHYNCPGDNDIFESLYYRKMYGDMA

B1: anti-CTGF scFv B2 (scFv, V domains shown)
VH: QVQLVQSGAEVKKPGESLKISCKGSGYKFTSYWIAWVRQMPGKGLEWMGIIYPGGSDTRYSPSFQGQVTISDDRSSSTTYLQWSSLKASDTAIYYCARSGELMDVWGQGTTVTVSS
VL: SYVLTQPPSVSVSPGQTVSITCSGDKLGNKYASWYQQRPGQSPILVIYQDTKRPSGIPERFSGSNSGNTATLTISGTQAMDEADYYCQAWDSNTAFFGTGTKVTVL
notes: VH of scFv B2; the classical (Gly4Ser)3 linker between VH and VL; VL of scFv B2; Order VH-linker-VL as in the library construction; Selected from a fully human phage library made from PBMCs of RA patients; also called parental scFv B2; source: E. coli (pET28a, IPTG induced), purified (Ni Sepharose)
EC50 of inhibition of CTGF-induced HUVEC proliferation, CCK-8 assay, scFv 1-500 nM [1]: 37.4 nM | Kd [2]: 252 nM | koff [2]: 0.00574 s⁻¹ | kon [2]: 22800 M⁻¹ s⁻¹

B2: mut-scFv B2 (scFv, V domains shown)
VH: QVQLVQSGAEVKKPGESLKISCKGSGYKFTSYWIAWVRQMPGKGLEWMGIIYPGGSDTRYSPSFQGQVTISDDRSSSTTYLQWSSLKASDTAIYYCARLGGAMDVWGQGTTVTVSS
VL: SYVLTQPPSVSVSPGQTVSITCSGDKLGNKYASWYQQRPGQSPILVIYQDTKRPSGIPERFSGSNSGNTATLTISGTQAMDEADYYCQAWDSNTAFFGTGTKVTVL
notes: VH of mut-scFv B2; as the VH of m2 with three changes in VH-CDR3; the classical (Gly4Ser)3 linker between VH and VL; VL as the VL of m2; source: E. coli (pET28a, IPTG induced), purified (Ni Sepharose)
EC50 of inhibition of CTGF-induced HUVEC proliferation, CCK-8 assay, scFv 1-500 nM [1]: 27.5 nM | Kd [2]: 1.96 nM | koff [2]: 0.00222 s⁻¹ | kon [2]: 1.13e+06 M⁻¹ s⁻¹

B3: anti-CTGF IgG mut-B2 (antibody, V domains shown)
VH: QVQLVQSGAEVKKPGESLKISCKGSGYKFTSYWIAWVRQMPGKGLEWMGIIYPGGSDTRYSPSFQGQVTISDDRSSSTTYLQWSSLKASDTAIYYCARLGGAMDVWGQGTTVTVSS
VL: SYVLTQPPSVSVSPGQTVSITCSGDKLGNKYASWYQQRPGQSPILVIYQDTKRPSGIPERFSGSNSGNTATLTISGTQAMDEADYYCQAWDSNTAFFGTGTKLTVL
notes: heavy chain: VH of m3 with human IgG1 constant region; light chain: VL of m3 with antibody constant region; Human IgG1 format; also called full-length antibody IgG mut-B2; source: ExpiCHO, transiently expressed, purified from supernatant (Protein G Sepharose); copies: 2 + 2
Kd [2]: 0.782 nM | koff [2]: 0.00365 s⁻¹ | kon [2]: 4.67e+06 M⁻¹ s⁻¹
